This passage reports Km, Vmax and kcat results from paper PMC3846777, “Characteristics and Function of Sulfur Dioxygenase in Echiuran Worm Urechis unicinctus” (PLoS ONE, 2013).

Numbering of substitutions follows the chain as printed. Numbers in names are those of the source.

Common to all, as to assay: oxygen consumption, Clark-type oxygen electrode (Oxytherm)
Holding throughout (format): biochemical, Urechis unicinctus
Common to all, as to settings: 0.1 M potassium phosphate pH 7.4, 25°C, O2 co-substrate, GSS^− prepared from GSH and acetonic sulfur

Substrate in data set [1]: N[C@@H](CCC(=O)N[C@@H](CSS)C(=O)NCC(=O)O)C(=O)O
The text has this:
oxygen consumption, Clark-type oxygen electrode (Oxytherm) on Del-1

Substrate in data set [2]: N[C@@H](CCC(=O)N[C@@H](CSS)C(=O)NCC(=O)O)C(=O)O
The text has this:
oxygen consumption, Clark-type oxygen electrode (Oxytherm) on Del-3
This is another data set of the same source.

Substrate in data set [3]: N[C@@H](CCC(=O)N[C@@H](CSS)C(=O)NCC(=O)O)C(=O)O
The text has this:
oxygen consumption, Clark-type oxygen electrode (Oxytherm) on Del-4
This is another data set of the same source.

Substrate in data set [4]: N[C@@H](CCC(=O)N[C@@H](CSS)C(=O)NCC(=O)O)C(=O)O
The text has this: oxygen consumption, Clark-type oxygen electrode (Oxytherm) on Del-2
This is another data set of the same source.

Substrate in data set [5]: N[C@@H](CCC(=O)N[C@@H](CSS)C(=O)NCC(=O)O)C(=O)O
This is another data set of the same source.

Substrate in data set [6]: N[C@@H](CCC(=O)N[C@@H](CSS)C(=O)NCC(=O)O)C(=O)O
The text has this:
oxygen consumption, Clark-type oxygen electrode (Oxytherm) on U. unicinctus SDO (complete ORF, wild type)
This is another data set of the same source.

B1: Del-1 (Urechis unicinctus) (protein)
chain: MLSSVCGSLRRTLCNGSVLASKHPFLGRSNALKLETKPVCTRVMYRSYSANMHGQEVVFRQLFDNTSFTYTYLLGDAASKEAVLIDPVIELVDRDVRIVKELGLNL
notes: C-terminally truncated SDO, 318 bp from the start codon (106 residues, end calculated from printed size), lacks all metal sites
Take B1: in data set [1], the Michaelis-Menten constant (Km) was determined as 218.9 ± 33.5 µM, the Vmax was 0.33 ± 0.014 µmol/min/mg and the kcat was 0.09 s⁻¹.

B2: Del-3 (Urechis unicinctus) (protein)
chain: MLSSVCGSLRRTLCNGSVLASKHPFLGRSNALKLETKPVCTRVMYRSYSANMHGQEVVFRQLFDNTSFTYTYLLGDAASKEAVLIDPVIELVDRDVRIVKELGLNLKYAVNTHVHADHVTGTGEIKKRIPTCKSVIAECSQAKADVFINEGDGIEFGQFKLECRSTPGHTDGCFTYVWHEKGMAFTGDALLIRGCGRTDFQQGSS
notes: C-terminally truncated SDO, 615 bp from the start codon (205 residues, end calculated from printed size)
As to B2, in data set [2], the Km was determined as 104.6 ± 16.7 µM, the Vmax came to 0.98 ± 0.065 µmol/min/mg and the kcat stood at 0.45 s⁻¹.

B3: Del-4 (Urechis unicinctus) (protein)
chain: MLSSVCGSLRRTLCNGSVLASKHPFLGRSNALKLETKPVCTRVMYRSYSANMHGQEVVFRQLFDNTSFTYTYLLGDAASKEAVLIDPVIELVDRDVRIVKELGLNLKYAVNTHVHADHVTGTGEIKKRIPTCKSVIAECSQAKADVFINEGDGIEFGQFKLECRSTPGHTDGCFTYVWHEKGMAFTGDALLIRGCGRTDFQQGSSEALYKSVHGKILSLPEQFILYPAHDYTGQTSTTVREEKNHNPRLTKPI
notes: C-terminally truncated SDO, 759 bp from the start codon
In the case of B3, in data set [3], the Km is 83.0 ± 10.9 µM, the Vmax stood at 1.23 ± 0.063 µmol/min/mg and the kcat worked out at 0.68 s⁻¹.

B4: Del-2 (Urechis unicinctus) (protein)
chain: MLSSVCGSLRRTLCNGSVLASKHPFLGRSNALKLETKPVCTRVMYRSYSANMHGQEVVFRQLFDNTSFTYTYLLGDAASKEAVLIDPVIELVDRDVRIVKELGLNLKYAVNTHVHADHVTGTGEIKKRIPTCKSVIAECSQAKADVFINEGDGIEFGQF
notes: C-terminally truncated SDO, 477 bp from the start codon (159 residues, end calculated from printed size)
Take B4: in data set [4], the Michaelis-Menten constant (Km) amounted to 137.0 ± 17.2 µM, the Vmax came to 0.42 ± 0.024 µmol/min/mg and the kcat amounted to 0.16 s⁻¹.

B5: U. unicinctus SDO (complete ORF, wild type) (Urechis unicinctus; D117E/H118A) (protein)
chain: MLSSVCGSLRRTLCNGSVLASKHPFLGRSNALKLETKPVCTRVMYRSYSANMHGQEVVFRQLFDNTSFTYTYLLGDAASKEAVLIDPVIELVDRDVRIVKELGLNLKYAVNTHVHAEAVTGTGEIKKRIPTCKSVIAECSQAKADVFINEGDGIEFGQFKLECRSTPGHTDGCFTYVWHEKGMAFTGDALLIRGCGRTDFQQGSSEALYKSVHGKILSLPEQFILYPAHDYTGQTSTTVREEKNHNPRLTKPIDVFIRIMSELNLPYPKQLDRALPANMVCGIFDTESPPSKS
Turning to B5, in data set [5], the Km stood at 174.4 ± 16.8 µM.

B6: U. unicinctus SDO (complete ORF, wild type) (Urechis unicinctus) (protein)
chain: B5 chain with E117D, A118H
Turning to B6, in data set [6], the Km is 82.5 ± 9.9 µM, the Vmax stood at 1.74 ± 0.081 µmol/min/mg and the kcat worked out at 1.09 s⁻¹.
